This assay has as its target human tumor necrosis factor-α (TNFα) (human) (UniProt P01375). Description: cell-based or functional assay.

Sequence of human tumor necrosis factor-α (TNFα) (human) (P01375 77-233): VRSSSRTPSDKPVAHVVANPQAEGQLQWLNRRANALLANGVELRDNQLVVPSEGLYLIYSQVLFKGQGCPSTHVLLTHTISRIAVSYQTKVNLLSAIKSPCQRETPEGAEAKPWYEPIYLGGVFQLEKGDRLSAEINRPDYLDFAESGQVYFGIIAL

B1: chimeric mouse/human IgG1 anti-platelet mAb (7E3) (antibody, INN chains, looked up, V domains shown)
VH: EVQLQQSGTVLARPGASVKMSCEASGYTFTNYWMHWVKQRPGQGLEWIGAIYPGNSDTSYIQKFKGKAKLTAVTSTTSVYMELSSLTNEDSAVYYCTLYDGYYVFAYWGQGTLVTVSA
VL: EIVLTQSPVTLSVTPGDSVSLSCRASRDISNNLHWFQQTSHESPRLLIKYASQSMSGIPSRFSGSGSGTDFTLSINSVETEDFGMYFCQQTNSWPYTFGGGTKLEIK
modifications: IgG1
B1 showed an IL-6 concentration in FS-4 fibroblast supernatant; rhTNF 0.3 ng/ml, antibody 4 µg/ml of 1.6 ng/mL; an IL-6 concentration in FS-4 fibroblast supernatant; rhTNF 1.5 ng/ml, antibody 4 µg/ml of 1.96 ng/mL; an IL-6 concentration in FS-4 fibroblast supernatant; rhTNF 7.5 ng/ml, antibody 4 µg/ml of 2.16 ng/mL.
